Experimental data reported in patent US11459369B2, “Fusion protein for alpha-melanocyte stimulating hormone and preparation method and use thereof” (LANZHOU UNIVERSITY, priority 2015, dated 2022).

How the values were obtained:
[1] = Validation of the ability to cross the BBB: level of fusion protein in hippocampal tissue homogenate by HSA ELISA; assay type: in vivo; details: mice, 1 μm/kg single intravenous injection, hippocampal tissue 6 h after administration
Method: Validation of the Ability to Across BBB of PTD-HSA-L-α-MSH
HSA Elisa Kit (cygnustechnologies).
10 mice (18-22 g) were used in the experiment, and were purchased from Laboratory Animal Center of Lanzhou University.
Mice were housed in groups of at most five animals per cage with clean water and food available ad libitum. PTD-HSA-L-α-MSH or HSA-L-α-MSH were given at a dosage of 1 μm/kg through a single intravenous injection in 150 μL volume. Mice were anesthetized 6 h after drug administration. The hippocampal tissue was harvest and homogenized immediately. Finally the level of PTD-HSA-L-α-MSH or HSA-L-α-MSH in hippocampal tissue homogenate was tested by ELISA.

[2] = system: TNF-α; experiment: Experimental brain inflammation of mouse induced by LPS: TNF-α in hippocampal tissue homogenate by ELISA; assay type: in vivo; details: mice
From the text: Neuroprotection of TAT-HSA-α-MSH on Experimental Brain Inflammation in Mice
TNF-a Elisa Kit (Dakewei, China).
20 mice (18-22 g) were used in the experiment, and were purchased from Laboratory Animal Center of Lanzhou University.
Lipopolysaccharide (LPS), a gram negative bacterial endotoxin, is the cell wall component of gram negative bacteria. Within the CNS, LPS challenge triggers central inflammatory responses, which results in releasing of proinflammatory mediators such as TNF-α. Therefore, to determine whether the described PTD-HSA-L-α-MSH can inhibit the production of pro-inflammatory factors in vivo, experimental brain inflammation of mouse induced by LPS was established, in which TNF-α was analyzed to detect the efficacy of PTD-HSA-L-α-MSH.
Mice were housed in groups of at most five animals per cage with clean water and food available ad libitum. The mice in control group were injected with 150 μL saline two times. The mice in LPS group were injected with 150 μL LPS at the dose of 5 mg/kg, and then injected with 150 μL saline. The mice in PTD-HSA-L-α-MSH+LPS group were injected with 150 μL LPS at the dose of 5 mg/kg, and then injected with 150 μL PTD-HSA-L-α-MSH at the dose of 1 μm/kg. The mice in α-MSH+LPS group were injected with 150 μL LPS at the dose of 5 mg/kg, and then injected with 150 μL α-MSH at the dose of 1 μm/kg. Mice were anesthetized 2 h after drug administration. […]

[3] = rat, iv administration, full length peptide; cited from earlier work

Substance: HSA-L-α-MSH: fusion protein of HSA, linker and α-MSH without PTD; amino acid sequence SEQ ID NO:10, about 69 KDa; comparator
- PTD-HSA-L-α-MSH(ng/mL), level in hippocampal tissue homogenate tested by ELISA [1]: 0.06 ± 0.02 ng/mL

Substance: α-Melanocyte stimulating hormone [α-MSH, reference compound]
- TNF-α (pg/mg protein) in hippocampal tissues tested by ELISA ([2]; LPS 5 mg/kg then substance 1 μm/kg, hippocampal tissue 2 h after administration): 155.8 ± 10.3 pg/mg protein
- effect on TNF-α increase compared with LPS group ([2]; LPS 5 mg/kg, single dose of 1 μm/kg intraperitoneally): could not be suppressed
- half-life [3]: a few minutes
